What was measured:
[1] = system: synthetic peptide HK2p01 (SRFKVWWAAG)
[2] = system: synthetic peptide HK2p02 (AARRPFPAPS)
[3] = system: synthetic peptide HK2p03 (PARRPFPVTA)
[4] = system: synthetic peptide HK2p04 (CFRQGCWVIT)
[5] = system: synthetic peptide HK2p06 (CYRMPTCMQRD)

plasma kallikrein, sequence (chain, as listed by the source): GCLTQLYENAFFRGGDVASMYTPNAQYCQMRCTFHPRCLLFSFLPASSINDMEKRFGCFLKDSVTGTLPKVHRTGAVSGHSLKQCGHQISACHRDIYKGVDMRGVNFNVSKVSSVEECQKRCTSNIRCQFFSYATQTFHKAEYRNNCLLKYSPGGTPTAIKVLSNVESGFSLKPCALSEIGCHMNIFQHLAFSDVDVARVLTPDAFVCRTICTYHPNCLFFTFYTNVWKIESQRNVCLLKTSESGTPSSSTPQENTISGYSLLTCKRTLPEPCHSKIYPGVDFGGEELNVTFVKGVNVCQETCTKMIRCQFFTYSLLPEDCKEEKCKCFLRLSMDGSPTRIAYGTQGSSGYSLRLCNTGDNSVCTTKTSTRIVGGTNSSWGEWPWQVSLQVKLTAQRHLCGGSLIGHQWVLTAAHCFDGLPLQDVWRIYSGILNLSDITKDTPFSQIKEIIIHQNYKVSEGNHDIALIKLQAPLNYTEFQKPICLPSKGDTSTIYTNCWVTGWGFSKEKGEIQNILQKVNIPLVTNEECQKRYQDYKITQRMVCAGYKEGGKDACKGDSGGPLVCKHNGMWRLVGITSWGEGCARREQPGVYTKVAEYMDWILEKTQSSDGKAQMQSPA

Substance	enzyme activity (chromogenic substrate) [1]	enzyme activity (chromogenic substrate) [2]	enzyme activity (chromogenic substrate) [3]	enzyme activity of hK2 (chromogenic substrate S-2302) [1]	enzyme activity of hK2 (chromogenic substrate S-2302) [2]	enzyme activity of hK2 (chromogenic substrate S-2302) [3]	enzyme activity of hK2 (chromogenic substrate S-2302) [4]	enzyme activity of hK2 (chromogenic substrate S-2302) [5]
plasma kallikrein	showed no inhibition	showed no inhibition	showed no inhibition					
thrombin	showed no inhibition	showed no inhibition	showed no inhibition					
prostate specific antigen	showed no inhibition	showed no inhibition	showed no inhibition					
recombinant wild-type (wt) human kallikrein 2				caused a significant reduction of the enzyme activity	caused a significant reduction of the enzyme activity	caused a significant reduction of the enzyme activity	did not show any effect on the enzyme activity of hK2	did not show any effect on the enzyme activity of hK2
urokinase	showed no inhibition	showed no inhibition	showed no inhibition					
α-chymotrypsin	showed no inhibition	showed no inhibition	showed no inhibition					
